What all share (assay): cell-based or functional assay
Assay [1] deals with BACE1 expressed from a transfected plasmid in 293T cells (NRG1 and PSGL1 assays).
In assay [2] the target is Recombinant Human Cathepsin D (human) (UniProt P07339).
The target of assay [3] is BACE in CHO-7W cells (Chinese hamster ovary cells stably transfected with wildtype human APP).

Results on two substances are retold here after US20220305006A1, “COMPOSITIONS AND METHODS FOR THE TREATMENT OF NEUROLOGICAL DISEASES AND DISORDERS” (The Regents of the University of California, priority 2019, published 2022).

Where only a bound is given, the exact number is not on record here.

Recombinant Human Cathepsin D (human), sequence (P07339 65-412): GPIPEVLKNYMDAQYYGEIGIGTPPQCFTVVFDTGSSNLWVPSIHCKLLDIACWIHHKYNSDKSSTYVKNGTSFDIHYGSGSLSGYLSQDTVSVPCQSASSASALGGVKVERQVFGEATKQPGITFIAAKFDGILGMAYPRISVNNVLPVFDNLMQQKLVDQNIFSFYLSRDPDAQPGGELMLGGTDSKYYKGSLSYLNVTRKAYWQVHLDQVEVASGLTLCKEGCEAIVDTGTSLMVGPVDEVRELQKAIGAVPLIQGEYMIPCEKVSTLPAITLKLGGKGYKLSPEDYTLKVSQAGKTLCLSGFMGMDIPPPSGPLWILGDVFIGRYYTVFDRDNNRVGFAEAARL

As for “BACE inhibitor 1 (statine BACE inhibitor 1) (peptide)”, in assay [1], the NRG1 cleavage by BACE in co-transfected 293T cells (secreted alkaline phosphatase), EC50 is greater than 10 µM and the PSGL1 cleavage by BACE in co-transfected 293T cells (secreted alkaline phosphatase), EC50 is greater than 10 µM. Also, the Cat D activity (fluorogenic substrate), IC50 in assay [2] is less than 0.01 µM.

“recombinant sAPPα, human, amino acids 19-613 (from UniProt P05067 19-613)” returned a decrease of BACE cleavage product sAPPβ from CHO-7W cells, EC50 in assay [3] of less than 5 µM. For the same substance, in assay [1], the NRG1 cleavage by BACE in co-transfected 293T cells (secreted alkaline phosphatase), EC50 was greater than 10 µM and the PSGL1 cleavage by BACE in co-transfected 293T cells (secreted alkaline phosphatase), EC50 is greater than 10 µM.
